Measured values: patent US20220119501A1 (INVISISHIELD TECHNOLOGIES, published 2022)

B1: anti-S1 (SARS-CoV-2) scFv clone #26 (scFv)
scFv: QAVLTQAPSASGTLGQQVTISCSGTTSNIGRNTVNWYQHLPGTAPKLLIFVSNQRPSGVPDRFSGSKSGTSASLVISGLQSEDEADYYCGAWDDSLDGMLFGGGTKLTVLGSRGGGGSGGGGSGGGGSLEMAQVQLVQSGAEVKKPGASVKVSCKASGYTFTSYGISWVRQAPGQGLEWMGWISAYNGNTNYAQKLQGRVTMTTDTSTSTAYMELRSLRSDDTAVYYCARGYYGDLDPWGQGTLVTVSSTSGQAGQ
B2: anti-S1 (SARS-CoV-2) scFv clone #19 (scFv)
scFv: QSALTQPASVSGSPGQSITISCTGTSSDVGGYNYVSWYQQHPGKVPKLMIYEVSNRPSGVSNRFSGSKSGNTASLTISGLQAEDEADYYCSSYTSGDTLVFGGGTKVTVLGSRGGGGSGGGGSGGGGSLEMAELQLVESGGGVVQPGRSPRLSCAASGFTFSNYPMHWVRQAPGKGLEWVAVISYDGNHKYYADSLEGRFSISRDNSKNTLYLQMNSLTAADTAVYYCARGGGMGGLDSWGQGTLVTVSSTSGQAGQ
notes: also called phage clone #19
B3: anti-S1 (SARS-CoV-2) scFv clone #15 (scFv)
scFv: QSVLTQPPSVSEAPRQRVTISCSGSSSNIGNNAVNWYQQLPGKAPKLLIYFNDVQSSGVSDRFSGSKSGTSASLAISGLQSEDEADYYCAAWDDSLNAVLFGGGTKLTVLGSRGGGGSGGGGSGGGGSLEMAEVQLVQSGAEVKKPGASVKVSCKASGYTFTGYYMHWVRQAPGQGLEWMGRINPNSGGTDYARKFRGRVTMTRDTSISTAYMELSRLTSDDTAMYYCARGYGDDWGQGTLVTVSSTSGQAGQ
notes: also called phage clone #15
B4: anti-S1 (SARS-CoV-2) scFv clone #09 (scFv)
scFv: NFMLTQPHSVSESPGKTVSISCTGSSGSIASNYVQWYQQRPGSAPTTVIYEDKERPSGVPNRFSGSIDRSSNSASLTISGLKTEDEADYYCQSYDDGNVVFGGGTKLTVLGSRGGGGSGGGGSGGGGSLEMAEVQLVESGAEVKKPGASVKVSCKASGYTFTSYGISWVRQAPGQGLEWMGWISAYNGNTNYAQKFQDRVTLTTDTSTNTAYMLLRSLRSDDTAVYYCARTWYSYHYDIWGQGTLVTVSSTSGQAGQ
notes: also called phage clone #09
B5: anti-S1 (SARS-CoV-2) scFv clone #30 (scFv)
scFv: QSALTQPPSASGSPGQSVTISCTGTSSDVGGYDYVSWYQQHPGKAPKLMIYEVSKRPSGVSNRFSGSKSGNTASLTISGLQAEDEADYYCSSYTSSSTFPYVFGTGTKVTVLGSRGGGGSGGGGSGGGGSLEMAEVQLVESGGGLEQPGGSLRLSCAASGFTFSSYAMSWVRQAPGKGLEWVSAISASGNSTFYADSVKGRFTISRDNSKHTLDLQMNSLRADDTAVYYCARNSDVWGQGTLVTVSSTSGQAGQ
notes: also called phage clone #30
B6: anti-S1 (SARS-CoV-2) scFv clone #20 (scFv)
scFv: SYVLTQPPSASGTPGQRVTISCSGSSSNIGSNTVNWYQQLPGTAPKLLIYSNNQRPSGVPDRFSASKSGTSASLAISGFQSEDEADYYCAAWDDSLDGYVFGTGTKVTVLGSRGGGGSGGGGSGGGGSLEMAEVQLVQSGAEVKKPGESLKISCKGSGYSFPSYWIGWVRQMPGKGLEWMGIIYPGDSDTRYSPSFQGQVTISADKSISTAYLQWSSLKASDTAMYYCARGSYTYMGGSYDYWGQGTLVTVSSTSGQAGQ
notes: also called phage clone #20
B7: anti-S1 (SARS-CoV-2) scFv clone #13 (scFv)
scFv: QSVLTQPPSASGTPGQRVTISCSGSSSNIGSNYVYWYQQLPGTAPKLLIYRNNQRPSGVPDRFSGSKSGTSASLAISGLRSEDEADYYCAAWDDSLSGPNYVFGTGTKVTVLGSRGGGGSGGGGSGGGGSLEMAQVQLVQSGAEVKKPGSSVKVSCKASGGTFSSYAISWVRQAPGQGLEWMGWISGYNGNTNYAQKLQGRVTMTTDTSTSTAYMELRSLRSDDTAVYYCARTGWSKGEKVTTWGEWFYVDYWGQGTLVTVSSTSGQAGQ
notes: also called phage clone #13

target: T1, S1 subunit polypeptide of SARS-CoV-2 spike protein (isolate 2019-nCoV, WIV4) (SARS-CoV-2 (isolate 2019-nCoV, WIV4), UniProt P0DTC2 16-685); assay: not given

Binder	IC50
B1	1.33 nM

target: T1, S1 subunit polypeptide of SARS-CoV-2 …; assay: phage ELISA on SARS-CoV-2 spike S1 (FIG. 1)

Binder	binding result
B2	binds
B3	binds
B4	binds
B5	binds
B6	binds
B7	binds
